Values belong to the binder of their own block, whether it stands above or below them. Ends that are not written are not given here.
What was measured:
[1] = biological target: T1, Ab-12, anti-PD-L1xCD28 non-masked antibody in Vh format; experiment: competition ELISA: peptide titrated against 5 nM Ab-12; binding of Ab-12 to captured biotinylated CD28 antigen is read; table prints 'IC50 nM' but the axis is Log [Peptide, uM] and the curve falls between Log 0.5 and Log 2
T1 construct: also called PDL1xCD28 non-masked (Vh)

[2] = biological target: T1, Ab-12, anti-PD-L1xCD28 non-masked …; experiment: competition ELISA: peptide titrated against 5 nM Ab-12; binding of Ab-12 to captured biotinylated CD28 antigen is read
[3] = biological target: T1, Ab-12, anti-PD-L1xCD28 non-masked …; experiment: as above; remark: listed apart in the source
[4] = biological target: T1, Ab-12, anti-PD-L1xCD28 non-masked …; experiment: as above; remark: listed apart in the source
[5] = biological target: T1, Ab-12, anti-PD-L1xCD28 non-masked …; experiment: as above; remark: listed apart in the source
[6] = biological target: T2, anti-CD28 scFv (SEQ ID NO: 9); experiment: competition ELISA: peptide titrated against 2 nM anti-CD28 scFv; binding of the scFv to captured biotinylated CD28 antigen is read
T2 construct: also called Anti-CD28 scFv (VH-linker 1-VL)

[7] = biological target: T2, anti-CD28 scFv (SEQ ID NO: 9); experiment: as above; remark: listed apart in the source
[8] = biological target: T1, Ab-12, anti-PD-L1xCD28 non-masked …; experiment: competition ELISA: peptide titrated against 5 nM Ab-12; binding of Ab-12 to captured biotinylated CD28 antigen is read; table prints 'IC50 nM' but the axis is Log [Peptide, uM]

IC50 [1]: 21 nM
B1: Peptide-12 (peptide)
peptide: GYCHYWGDMVMWCG
modifications: cysteine pairing not given here; also: biotinylated, site not given here
notes: also called Peptide-12_200 nM

IC50 (read off the curve) [2]: ~2000 nM | IC50 [3]: 2240 nM | IC50 [4]: 1860 nM | IC50 [5]: 2630 nM | IC50 (read off the curve) [6]: ~2000 nM | IC50 [7]: 1280 nM | IC50 [8]: 1.54 nM
B2: Peptide-9 (peptide)
peptide: MDWCPRERWVDCFF
modifications: cysteine pairing not given here; also: biotinylated, site not given here

Reference: patent US20230357447A1 (JANUX THERAPEUTICS, published 2023)
